Data reported in the supplement of paper PMC10724198.
± gives the standard deviation of the averaged measurements.

System: Saccharomyces cerevisiae
Assay: protein stability index of tFT-peptide fusion (C-terminal peptide) (PSI (0-1 scale)); higher = more stable (slower turnover)
Settings: temperature: 30 C
Protocol: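 MPS profiling in S. cerevisiae of the yeast C-terminome library: the last 12 aa of each annotated ORF are fused to the C-terminus of a sfGFP-mCherry timer, after a GGGS linker. Cells are FACS-sorted into 8 mCherry/sfGFP bins and deep-sequenced. PSI runs from 0 (unstable) to 1 (stable); wild type and das1Δ backgrounds, two technical replicates each.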

[1] = genetic background: das1 deletion

AAAIAGAAALLL [DAN1 C-terminal 12 aa]
protein stability index [1]: 0.712 ± 0.013 | protein stability index (genetic background: wild type): 0.732 ± 0.035

AAPQDINQQPNQ [LDS1 C-terminal 12 aa]
protein stability index [1]: 0.727 ± 0.028 | protein stability index (genetic background: wild type): 0.671 ± 0.0087

AAQLSSILPKYM [YLR140W C-terminal 12 aa]
protein stability index [1]: 0.674 ± 0.056 | protein stability index (genetic background: wild type): 0.566 ± 0.063

AAVAKQKVSDSK [DHR2 C-terminal 12 aa]
protein stability index [1]: 0.664 ± 0.024 | protein stability index (genetic background: wild type): 0.654 ± 0.024

AAVRQRREVNKK [ARO4 C-terminal 12 aa]
protein stability index [1]: 0.6893 ± 0.006 | protein stability index (genetic background: wild type): 0.676 ± 0.04

ADFLAKKGASRR [RNH1 C-terminal 12 aa]
protein stability index [1]: 0.6944 ± 0.002 | protein stability index (genetic background: wild type): 0.698 ± 0.03

ADVRYPNIDDYL [HCS1 C-terminal 12 aa]
protein stability index [1]: 0.73454 ± 6.5e-05 | protein stability index (genetic background: wild type): 0.713 ± 0.048

AEELWADIVGSA [TRP2 C-terminal 12 aa]
protein stability index [1]: 0.75126 ± 0.00045 | protein stability index (genetic background: wild type): 0.684 ± 0.019

AFEELYMGNCND [SIR1 C-terminal 12 aa]
protein stability index [1]: 0.7218 ± 0.0021 | protein stability index (genetic background: wild type): 0.674 ± 0.035

AFFAVILLYIPG [YKR073C C-terminal 12 aa]
protein stability index [1]: 0.287 ± 0.027 | protein stability index (genetic background: wild type): 0.302 ± 0.018

AFMMICEKLITL [SEC59 C-terminal 12 aa]
protein stability index [1]: 0.7062 ± 0.0011 | protein stability index (genetic background: wild type): 0.5394 ± 0.0032

AGALAAVAAMLL [TIR4 C-terminal 12 aa]
protein stability index [1]: 0.707 ± 0.037 | protein stability index (genetic background: wild type): 0.679 ± 0.024

AGALAVAAAYLL [CWP1 C-terminal 12 aa]
protein stability index [1]: 0.693 ± 0.013 | protein stability index (genetic background: wild type): 0.669 ± 0.0081

AGSSKFLKGAKI [MRS1 C-terminal 12 aa]
protein stability index [1]: 0.707 ± 0.037 | protein stability index (genetic background: wild type): 0.673 ± 0.0098

AGTLDGRLAIWY [BPH1 C-terminal 12 aa]
protein stability index [1]: 0.6943 ± 0.0032 | protein stability index (genetic background: wild type): 0.686 ± 0.014

AIAKSIPKRVGL [PUT1 C-terminal 12 aa]
protein stability index [1]: 0.718 ± 0.035 | protein stability index (genetic background: wild type): 0.6998 ± 0.0057

AINEGHEGFGLA [TOM1 C-terminal 12 aa]
protein stability index [1]: 0.663 ± 0.025 | protein stability index (genetic background: wild type): 0.687 ± 0.024

AKNGDYVKIEQP [YMR315W C-terminal 12 aa]
protein stability index [1]: 0.6792 ± 0.0039 | protein stability index (genetic background: wild type): 0.729 ± 0.019

ALAASRAEQPPA [YCR049C C-terminal 12 aa]
protein stability index [1]: 0.691 ± 0.0084 | protein stability index (genetic background: wild type): 0.712 ± 0.012

ALEEALMDRLQF [ATG29 C-terminal 12 aa]
protein stability index [1]: 0.7094 ± 0.0057 | protein stability index (genetic background: wild type): 0.6947 ± 0.0064

ALGLAGVAMLFL [SED1 C-terminal 12 aa]
protein stability index [1]: 0.694 ± 0.02 | protein stability index (genetic background: wild type): 0.647 ± 0.0089

ALGMYFLGPALK [YGL063C-A C-terminal 12 aa]
protein stability index [1]: 0.697 ± 0.02 | protein stability index (genetic background: wild type): 0.7443 ± 0.0028

ALSKDGIYTIAN [PAU1 C-terminal 12 aa]
protein stability index [1]: 0.711 ± 0.0085 | protein stability index (genetic background: wild type): 0.721 ± 0.017

AMYDKITESQKK [CHD1 C-terminal 12 aa]
protein stability index [1]: 0.714 ± 0.027 | protein stability index (genetic background: wild type): 0.683 ± 0.0096

ANSLDAIFLKSK [YNL150W C-terminal 12 aa]
protein stability index [1]: 0.6777 ± 0.0042 | protein stability index (genetic background: wild type): 0.669 ± 0.021

APTPEACESCSG [RNR3 C-terminal 12 aa]
protein stability index [1]: 0.696 ± 0.01 | protein stability index (genetic background: wild type): 0.6947 ± 0.003

AREQLYEKLEQA [MIC27 C-terminal 12 aa]
protein stability index [1]: 0.697 ± 0.007 | protein stability index (genetic background: wild type): 0.6716 ± 0.0039

ARMTGETPVAKH [YHM2 C-terminal 12 aa]
protein stability index [1]: 0.688 ± 0.033 | protein stability index (genetic background: wild type): 0.677 ± 0.016

ATEITPLLNIAE [VLD1 C-terminal 12 aa]
protein stability index [1]: 0.674 ± 0.018 | protein stability index (genetic background: wild type): 0.773 ± 0.033

ATSLSPNKASAS [YJL026C-A C-terminal 12 aa]
protein stability index [1]: 0.685 ± 0.015 | protein stability index (genetic background: wild type): 0.6601 ± 0.0011

ATVSKIIKLDRK [MYO4 C-terminal 12 aa]
protein stability index [1]: 0.711 ± 0.0089 | protein stability index (genetic background: wild type): 0.691 ± 0.025

AVHSFNTPAVQS [COX1 C-terminal 12 aa]
protein stability index [1]: 0.6863 ± 0.0034 | protein stability index (genetic background: wild type): 0.676 ± 0.019

AWAKKLKSMRRS [TAM41 C-terminal 12 aa]
protein stability index [1]: 0.709 ± 0.013 | protein stability index (genetic background: wild type): 0.634 ± 0.021

AWIADLDHTVQP [CHS6 C-terminal 12 aa]
protein stability index [1]: 0.718 ± 0.017 | protein stability index (genetic background: wild type): 0.708 ± 0.011

AYECAKHFLMKN [MRS4 C-terminal 12 aa]
protein stability index [1]: 0.7061 ± 0.0038 | protein stability index (genetic background: wild type): 0.5284 ± 0.0001

AYETLTGSKWSH [ADE1 C-terminal 12 aa]
protein stability index [1]: 0.704 ± 0.01 | protein stability index (genetic background: wild type): 0.704 ± 0.015
